Experimental data from US20130029377.

Molecular target: Apolipoprotein A-1 Milano (ApoA-1M)
Sequence (chain, as listed by the source): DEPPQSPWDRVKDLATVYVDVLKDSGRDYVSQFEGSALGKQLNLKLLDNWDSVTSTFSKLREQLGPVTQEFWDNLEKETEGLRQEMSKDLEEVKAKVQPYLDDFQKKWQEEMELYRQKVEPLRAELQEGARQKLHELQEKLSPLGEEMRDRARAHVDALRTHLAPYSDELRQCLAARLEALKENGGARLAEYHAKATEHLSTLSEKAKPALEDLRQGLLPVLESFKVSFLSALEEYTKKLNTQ

B1: outer membrane protease 3B (Protease 7 precursor, or OmpT) (protein)
chain: STETLSFTPDNINADISLGTLSGKTKERVYLAEEGGRKVSQLDWKFNNAAIIKGAINWDLMPQISIGAAGWTTLGSRGGNMVDQDWMDSSNPGTWTDESRHPDTQLNYANEFDLNIKGWLLNEPNYRLGLMAGYQESRYSFTARGGSYIYSSEEGFRDDIGSFPNGERAIGYKQRFKMPYIGLTGSYRYEDFELGGTFKYSGWVESSDNDEHYDPGKRITYRSKVKDQNYYSVAVNAGYYVTPNAKVYVEGAWNRVTNKKGNTSLYDHNNNTSDYSKNGAGIENYNFITTAGLKYTF
- ApoA-1M K238/K239 truncated species (% total ApoA-1M), Capture pool, ompT+ strain ΔdppAΔoppAΔmalE (% total ApoA-1M): 1.9
- ApoA-1M K238/K239 truncated species (% total ApoA-1M), DEAE pool, ompT+ strain ΔdppAΔoppAΔmalE (% total ApoA-1M): 1.3
- ApoA-1M K238/K239 truncated species (% total ApoA-1M), DEAE post-peak pool, ompT+ strain ΔdppAΔoppAΔmalE (% total ApoA-1M): 7
- ApoA-1M K238/K239 truncated species (% total ApoA-1M), selected DEAE post-peak fraction, ompT+ strain ΔdppAΔoppAΔmalE (% total ApoA-1M): 14.2
- K238/K239 truncation of ApoA-1M, ompT+ strain against ΔompT strain: marked (~5- to 20-fold) reduction in the amount of truncated ApoA-1M in the GB004 strain compared with the 3K0 strain
